# Reference: patent publication US12559740B2, “Process for the direct enzymatic conversion of amino sugars; enzyme and compositions for use in the process” (GLYCOMICS AND GLYCAN BIOENGINEERING RESEARCH CENTER …, priority 2021, dated 2026)
# Test system: N[C@H]1C(O)O[C@H](CO)[C@@H](O)[C@@H]1O
# Test: Kinetic analysis of Ef-GPDA with glucosamine (conversion of glucosamine to fructose, photometric at 505 nm after resorcinol derivatization)
# Assay type: biochemical, Enterococcus faecalis
# Conditions: other: substrate glucosamine (3 to 140 mM solutions, 30 μL), MES buffer pH 7.0, MgCl2, 40° C., 10 h
# Protocol: Reaction mixtures (50 μL) were centrifuged at 12000 g for 10 min at room temperature, and 40 μL samples of the supernatant were taken and mixed with 35 μL conc. HCl and 5 μL of resorcinol-thiourea reagent (consisting of 0.1% (w/V) resorcinol and 0.25% (w/V) in glacial acetic acid). The mixed samples were incubated at 80° C. for 10 min and then centrifuged at 12000 g for 10 min at room temperature. The supernatants (50 μL) were then transferred to 96 microplate and the absorbance at λ=505 nm measured with a microplate photometer (Thermo Multiskan).
# Genes encoding the wild-type or mutant variants of GDPA were synthesized in an E. coli codon-optimized form (Genscript) and delivered in a pUC19 vector with ampicillin resistance. The protein-encoding insert was cut via Ndel and Xhol restriction enzymes (Takara) and ligated in a pET30a expression vector via T4 Ligase (Takara). The GPDA enzymes were prepared as follows: a fresh single colony from an LB agar plate supplemented with […] Kanamycin and used to grow E. coli strain BL21 comprising the respective plasmid was used to inoculate 5 mL of LB liquid medium with the same concentration of Kanamycin. Following incubation of said culture over night at 120 rpm and 37° C. 2 mL of the overnight culture was used to inoculate 400 mL of the same medium in a 2 L flask. […]
substance,measurement,value
"Ef-GPDA, glucosamine-6-phosphate deaminase from Enterococcus faecalis, wild type, SEQ ID NO: 1 (Enterococcus faecalis V583)",Km,21.8 ± 2.3 mM
same,Vmax,4.0 ± 0.2 µmol/min
